Assay [1] deals with β-Klotho/FGFR complex. In words: Elk1-luciferase reporter assay in HEK293T reporter cells transiently transfected with full-length WT β-Klotho. Type of assay: cell-based, human. Particulars: 6 h treatment, mean ± SD of three independent experiments, read-out: EC50, stimulation of Elk1-luciferase reporter activity (KLB WT). As for the experimental part:
(§1) To measure the signaling activity of β-Klotho mutants, ELK luciferase assay was performed in HEK293T cells that were stably transfected with reporter constructs containing 5 × UAS upstream of luciferase and Gal4 DNA-binding domain fused to ELK1. Briefly, HEK293T reporter cells were maintained in DMEM supplemented with 10% (v/v) FBS (Gibco) and 2 mM GlutaMax (Gibco) in a 37 °C incubator with 5% CO2. Cells were plated on 96-well plates in growth medium and incubated overnight. The next day, cells were transfected with expression vectors encoding full-length β-Klotho WT or mutants using the Lipofectamine 2000 transfection reagent (Invitrogen) according to the manufacturer’s protocol. Cells were serum-starved in DMEM supplemented with 5% (v/v) FBS (Gibco) and 2 mM GlutaMax (Gibco) overnight the day after transfection and treated with FGF21 for 6 hours at 37 °C with 5% CO2, after which the cells were lysed in Bright-Glo luciferase reagent (Promega). Luciferase activity was measured in relative luminescence units on the EnVision Multilabel Plate Reader (PerkinElmer) according to the manufacturer’s instructions. All assays were performed in duplicates. EC50 values were determined from a three-parameter logistic regression model with the least squares fit using GraphPad Prism version 7.
In general terms: In a reporter assay the amount or activity of a reporter protein is the signal.

Assay [2] concerns FGFR (expressed endogenously in HEK293T reporter cells). Nature of the assay: Elk1-luciferase reporter assay in HEK293T reporter cells without β-Klotho (no KLB). The format is cell-based, human. Particulars: d.n.c = did not converge. As for the experimental part: as §1, with “The next day, cells were transfected with expression vectors encoding full-length β-Klotho WT or mutants using the Lipofectamine 2000 transfection reagent (Invitrogen) according to the manufacturer’s protocol.” left out

For assay [3], the system named is β-Klotho/FGFR1c. In words: Elk1-luciferase reporter assay in CHO reporter cells stably expressing human β-Klotho and FGFR1c. Type of assay: cell-based. Particulars: 4 h treatment, three independent experiments in duplicates, read-out: EC50, stimulation of Elk1-luciferase reporter activity. The method, then: To measure the signaling activity of Fc-FGF21 mutants, ELK luciferase assay was performed in CHO cells stably transfected with human FGFR1c, β-Klotho and the two reporter constructs described above. CHO reporter cells were maintained in DMEM supplemented with 10% (v/v) dialyzed FBS (GE Healthcare Life Sciences), 6 µg/mL puromycin (Sigma) and 400 μg/mL hygromycin (Invitrogen) in a 37 °C incubator with 5% CO2. Cells were plated on 96-well plates in growth medium and incubated overnight. The next day, cells were serum-starved in Ham’s F-12K Nutrient Mixture (Corning) supplemented with 1% (w/v) BSA (Sigma) overnight. Following starvation, Fc-FGF21 protein was added to cells in starvation medium. Plates were incubated for 4 hours at 37 °C with 5% CO2, after which the cells were lysed in Steady-Glo luciferase reagent (Promega). Luciferase activity was measured and analyzed as described above.

2 molecules from publication PMC6056499, “A systematic dissection of sequence elements determining β-Klotho and FGF interaction and signaling” (Scientific Reports, 2018) can be followed below.

Where two headings read alike, the source gives them in different places.

B1: FGF21: mature human FGF21 protein, endocrine fibroblast growth factor (protein)
chain: HPIPDSSPLLQFGGQVRQRYLYTDDAQQTEAHLEIREDGTVGGAADQSPESLLQLKALKPGVIQILGVKTSRFLCQRPDGALYGSLHFDPEACSFRELLLEDGYNVYQSEAHGLPLHLPGNKSPHRDPAPRGPARFLPLPGLPPALPEPPGILAPQPPDVGSSDPLSMVGPSQGRSPSYAS
modifications: biotin (EZ-Link Sulfo-NHS-LC-Biotin) in the solid-phase binding assay; biotinylated as the labelled ligand in AlphaScreen
notes: mature human FGF21 protein, endocrine fibroblast growth factor
One may read the EC50 as the concentration at which the effect is half-maximal. Regarding B1, the concentration giving a half-maximal response (EC50) turned out to be 3.5 ± 1.1 nM in assay [1] (Fig 3A), 2.87 ± 1.15 nM in assay [1] (Fig 3D) and 0.57 ± 0.09 nM in assay [3]. In addition, the “EC50, stimulation of Elk1-luciferase reporter activity (no KLB)” value in assay [2] (Fig 3A, mean ± SD of three independent experiments) is “d.n.c”; in assay [2] (Fig 3D), “d.n.c”.

B2: Fc-FGF21: mature human FGF21 polypeptide fused with the human Fc fragment at the N-terminus (protein)
chain: HPIPDSSPLLQFGGQVRQRYLYTDDAQQTEAHLEIREDGTVGGAADQSPESLLQLKALKPGVIQILGVKTSRFLCQRPDGALYGSLHFDPEACSFRELLLEDGYNVYQSEAHGLPLHLPGNKSPHRDPAPRGPARFLPLPGLPPALPEPPGILAPQPPDVGSSDPLSMVGPSQGRSPSYAS
modifications: left off: Fc (human), N-terminal, kept
notes: mature human FGF21 polypeptide fused with the human Fc fragment at the N-terminus
Take B2: the EC50 in assay [3] came to 1.85 ± 0.44 nM.
